Measured values as given in patent US20250376519A1 (JIANGSU HENGRUI PHARMACEUTICALS, published 2025).

Assays:
human DLL3 on cells [1] = target: T1, human DLL3 on cells (human, UniProt Q9NYJ7 27-618); test: flow cytometry, DLL3/H82 cells; design: key to Emax: geometric mean fluorescence intensity (flow cytometry)
T1 construct: Endogenous on H1184 and SHP77; Cell line is named under assay; also called H1184; DLL3/H82
T1 sequence: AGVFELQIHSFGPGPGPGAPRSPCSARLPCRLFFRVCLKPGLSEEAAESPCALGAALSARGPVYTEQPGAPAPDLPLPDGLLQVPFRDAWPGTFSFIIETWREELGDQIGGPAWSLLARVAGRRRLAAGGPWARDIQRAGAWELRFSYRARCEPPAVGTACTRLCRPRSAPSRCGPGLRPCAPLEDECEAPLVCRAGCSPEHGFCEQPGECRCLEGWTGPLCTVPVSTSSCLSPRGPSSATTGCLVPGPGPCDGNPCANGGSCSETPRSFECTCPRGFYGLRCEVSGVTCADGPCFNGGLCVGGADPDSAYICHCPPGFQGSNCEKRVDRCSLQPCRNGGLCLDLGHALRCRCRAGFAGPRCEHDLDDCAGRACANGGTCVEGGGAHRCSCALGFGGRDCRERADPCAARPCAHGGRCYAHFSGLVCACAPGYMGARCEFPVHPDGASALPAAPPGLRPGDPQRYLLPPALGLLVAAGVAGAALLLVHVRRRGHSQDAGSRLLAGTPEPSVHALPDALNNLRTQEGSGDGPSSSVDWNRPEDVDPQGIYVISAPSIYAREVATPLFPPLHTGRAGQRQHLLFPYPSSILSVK
Procedure: (§1) The plates were centrifuged at 300 g for 5 min, and the supernatant was removed. Different concentrations of test antibodies were added at 100 μL/well. The plates were incubated in the dark in a refrigerator at 4° C. for 1 h. After 3 centrifugal washes at 300 g, working concentrations of APC anti-human IgG Fc (BioLegend, 410712) or PE F(ab′)2-goat anti-human IgG (invitrogen, H10104) were added. The plates were incubated in the dark in a refrigerator at 4° C. for 40 min. After 3 centrifugal washes at 300 g, the geometric mean fluorescence intensity was measured on an Invitrogen flow cytometer, and the EC50 values for the binding of the antibodies to DLL3-expressing cells were calculated.

human DLL3 on cells [2] = target: T1, human DLL3 on cells; test: flow cytometry, SHP77 cells
Procedure: as §1

[3] = target: T2, human DLL3 (ACRO, DLL3-H52H4) (human, UniProt Q9NYJ7 27-492); test: SPR Biacore 8K, Ab captured on Protein A
T2 construct: Bought
T2 sequence: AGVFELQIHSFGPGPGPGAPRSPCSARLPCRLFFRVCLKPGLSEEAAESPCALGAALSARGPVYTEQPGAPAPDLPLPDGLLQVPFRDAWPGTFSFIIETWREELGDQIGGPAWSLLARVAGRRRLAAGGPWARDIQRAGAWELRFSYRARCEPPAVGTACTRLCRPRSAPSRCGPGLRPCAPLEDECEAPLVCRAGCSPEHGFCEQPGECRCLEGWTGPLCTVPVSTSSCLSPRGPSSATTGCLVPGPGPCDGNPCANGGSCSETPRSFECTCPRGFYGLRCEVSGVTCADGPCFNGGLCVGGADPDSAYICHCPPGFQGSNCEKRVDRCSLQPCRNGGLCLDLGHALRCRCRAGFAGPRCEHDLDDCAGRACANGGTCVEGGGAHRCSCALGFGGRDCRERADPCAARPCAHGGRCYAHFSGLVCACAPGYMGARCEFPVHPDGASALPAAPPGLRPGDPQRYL
Summary of the method: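 Antibodies captured on a Protein A chip for 18 s; DLL3 or CD3D&3E antigen flowed 180 s, then 600 s dissociation, with real-time detection. Regeneration used 10 mM glycine-HCl pH 1.5 between cycles. Kinetics were obtained by 1:1 model fitting.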

hTSLP = hTSLP (human, UniProt Q969D9 29-159); test: ELISA
hIL5 = hIL5 (human, UniProt P05113 20-134); test: ELISA

B1: hu30L1H5 (antibody, human IgG1, kappa, V domains shown)
VH: EVRLVQSGAEVKKPGASVKVSCKASGYTFTDYYMNWVRQAPGQSLEWMGIINPYTGDTSYNQKFRGRVTLTVDKSASTAYMELSSLRSEDTAVYYCARYHYGPHLEGYFDVWGQGTTVTVSS
VL: DIVMTQSPDSLAVSLGERATINCKASENVGYVSWYQQKPGQPPKLLIYGASNRYTGVPDRFSGSGSGTDFTLTISSLQAEDVAVYYCGQSYSYPLTFGQGTKLEIKR
- EC50 (human DLL3 on cells [1]): 0.88 nM
- Emax (human DLL3 on cells [1]): 6800
- EC50 (human DLL3 on cells [2]): 6.45 nM
- Emax (human DLL3 on cells [2]): 1540
- Kd [3]: 0.952 nM
- koff [3]: 0.00117 s⁻¹
- kon [3]: 1.23e+06 M⁻¹ s⁻¹

B2: hu30L4H11 (antibody, human IgG1, kappa, V domains shown)
VH: EVRLVQFGAVVKKPGASVKVSCKASGYTFTDYYMNWVRQAPGQSLEWMGIINPYTGDTSYNQKFRGRVTLTVDKSSSTAYMELSSLTSEDTAVYYCARYHYGPHLEGYFDVWGQGTTVTVSS
VL: DIQMTQSPSSLSASVGDRVTITCKASENVGYVSWYQQKPGKAPKLLIYGASNRYTGVPSRFSGSGSGTDFTLTISSLQPEDFATYYCGQSYSYPLTFGQGTKLEIKR
- EC50 (human DLL3 on cells [2]): 7.82 nM
- Emax (human DLL3 on cells [2]): 1520
- Kd [3]: 2.84 nM
- koff [3]: 0.00113 s⁻¹
- kon [3]: 398000 M⁻¹ s⁻¹

B3: hu30L4H9 (antibody, human IgG1, kappa, V domains shown)
VH: EVRLVQSGAEVKKPGASVKVSCKASGYTFTDYYMNWVRQAPGQSLEWIGIINPYTGDTSYNQKFRGRATLTVDKSASTAYMELSSLRSEDTAVYYCARYHYGPHLEGYFDVWGQGTTVTVSS
VL: DIQMTQSPSSLSASVGDRVTITCKASENVGYVSWYQQKPGKAPKLLIYGASNRYTGVPSRFSGSGSGTDFTLTISSLQPEDFATYYCGQSYSYPLTFGQGTKLEIKR
- EC50 (human DLL3 on cells [2]): 9.94 nM
- Emax (human DLL3 on cells [2]): 1370
- Kd [3]: 2.57 nM
- koff [3]: 0.00101 s⁻¹
- kon [3]: 392000 M⁻¹ s⁻¹

B4: hu30L5H9 (antibody, human IgG1, kappa, V domains shown)
VH: EVRLVQSGAEVKKPGASVKVSCKASGYTFTDYYMNWVRQAPGQSLEWIGIINPYTGDTSYNQKFRGRATLTVDKSASTAYMELSSLRSEDTAVYYCARYHYGPHLEGYFDVWGQGTTVTVSS
VL: DIQMTQSPSSLSASVGDRVTITCKASENVGYVSWYQQKPGKSPKLLIYGASNRYTGVPDRFSGSGSGTDFTLTISSLQPEDFATYYCGQSYSYPLTFGSGTKLEIKR
- EC50 (human DLL3 on cells [2]): 9.6 nM
- Emax (human DLL3 on cells [2]): 1560
- Kd [3]: 2.48 nM
- koff [3]: 0.000989 s⁻¹
- kon [3]: 399000 M⁻¹ s⁻¹

B5: hu30L5H5 (antibody, human IgG1, kappa, V domains shown)
VH: EVRLVQSGAEVKKPGASVKVSCKASGYTFTDYYMNWVRQAPGQSLEWMGIINPYTGDTSYNQKFRGRVTLTVDKSASTAYMELSSLRSEDTAVYYCARYHYGPHLEGYFDVWGQGTTVTVSS
VL: DIQMTQSPSSLSASVGDRVTITCKASENVGYVSWYQQKPGKSPKLLIYGASNRYTGVPDRFSGSGSGTDFTLTISSLQPEDFATYYCGQSYSYPLTFGSGTKLEIKR
- EC50 (human DLL3 on cells [2]): 7.48 nM
- Emax (human DLL3 on cells [2]): 1610
- Kd [3]: 1.98 nM
- koff [3]: 0.000882 s⁻¹
- kon [3]: 446000 M⁻¹ s⁻¹

B6: HJ-3 (bispecific antibody)
chain 1: not shown
chain 2: DIQMTQSPSSVSASVGDRVTITCRASQDIANYLSWYQQKPGKSPKLLIYGTSNLEVGVPSRFSGSRSGTDFTLTISSLQPEDFATYYCLQDKEFPRTFGGGTKVEIKGGGGSSGAPRFLTRPLAFVVSVGKDATLSSQIVGNPTPQVSWEKDKQPVTAGARFRLAQDGDLYRLKILDLQLSDSGQYVSRARNAIGEAFACLGLQVDAEA
chain 3: EVQLVQSGAEVKKPGSSVKVSCKASGYTFSNYLIEWVRQAPGQGLEWIGVIDPGVGDTNYNENFKGRATLTADKSTSTAYIELSSLRSEDTAVYYCAREDNTGTAFDYWGQGTTVTVSSASTKGPSVFPLAPSSKSTSGGTAALGCLVKDYFPEPVTVSWNSGALTSGVHTFPAVLQSSGLYSLSSVVTVPSSSLGTQTYICNVNHKPSNTKVDKKVEPKSCDKTHTCPPCPAPEAAGGPSVFLFPPKPKDTLMISRTPEVTCVVVDVSHEDPEVKFNWYVDGVEVHNAKTKPREEQYNSTYRVVSVLTVLHQDWLNGKEYKCKVSNKALPAPIEKTISKAKGQPREPQVCTLPPSREEMTKNQVSLSCAVKGFYPSDIAVEWESNGQPENNYKTTPPVLDSDGSFFLVSKLTVDKSRWQQGNVFSCSVMHEALHNHYTQKSLSLSPGKDYKDDDDK
chain 4: SIVMTQTPLSLSVTPGQPASISCKASQSVSSDVTWYLQKPGQSPQLLIYYVSEHYTGVPDRFSGSGYGTDFTLKISRVEAEDVGVYYCQQHHRFPLTFGQGTKLEIKRTVAAPSVFIFPPSDEQLKSGTASVVCLLNNFYPREAKVQWKVDNALQSGNSQESVTEQDSKDSTYSLSSTLTLSKADYEKHKVYACEVTHQGLSSPVTKSFNRGEC
- EC50 (hTSLP): 3.23 nM
- EC50 (hIL5): 17.4 nM

B7: HJ-6 (bispecific antibody)
chain 1: not shown
chain 2: DIQMTQSPSSVSASVGDRVTITCRASQDIANYLSWYQQKPGKSPKLLIYGTSNLEVGVPSRFSGSRSGTDFTLTISSLQPEDFATYYCLQDKEFPRTFGGGTKVEIKGGGGSSGAPRFLTCPKASVVSVGKDATLSSQIVGNPFPQVSWEKDKQPVTAGVRFRLAQDGDLYRLKILDLQLSDSGQYVSRARNAHGEAFACLGLQVDAEA
chain 3: EVQLVQSGAEVKKPGSSVKVSCKASGYTFSNYLIEWVRQAPGQGLEWIGVIDPGVGDTNYNENFKGRATLTADKSTSTAYIELSSLRSEDTAVYYCAREDNTGTAFDYWGQGTTVTVSSASTKGPSVFPLAPSSKSTSGGTAALGCLVKDYFPEPVTVSWNSGALTSGVHTFPAVLQSSGLYSLSSVVTVPSSSLGTQTYICNVNHKPSNTKVDKKVEPKSCDKTHTCPPCPAPEAAGGPSVFLFPPKPKDTLMISRTPEVTCVVVDVSHEDPEVKFNWYVDGVEVHNAKTKPREEQYNSTYRVVSVLTVLHQDWLNGKEYKCKVSNKALPAPIEKTISKAKGQPREPQVCTLPPSREEMTKNQVSLSCAVKGFYPSDIAVEWESNGQPENNYKTTPPVLDSDGSFFLVSKLTVDKSRWQQGNVFSCSVMHEALHNHYTQKSLSLSPGK
chain 4: SIVMTQTPLSLSVTPGQPASISCKASQSVSSDVTWYLQKPGQSPQLLIYYVSEHYTGVPDRFSGSGYGTDFTLKISRVEAEDVGVYYCQQHHRFPLTFGQGTKLEIKRTVAAPSVFIFPPSDEQLKSGTASVVCLLNNFYPREAKVQWKVDNALQSGNSQESVTEQDSKDSTYSLSSTLTLSKADYEKHKVYACEVTHQGLSSPVTKSFNRGEC
- EC50 (hTSLP): 2.88 nM
- EC50 (hIL5): 37 nM

B8: HJ-5 (bispecific antibody)
chain 1: not shown
chain 2: DIQMTQSPSSVSASVGDRVTITCRASQDIANYLSWYQQKPGKSPKLLIYGTSNLEVGVPSRFSGSRSGTDFTLTISSLQPEDFATYYCLQDKEFPRTFGGGTKVEIKGGGGSSGAPRFLTRPKASVVSVGKDATLSSQIVGNPFPQVSWEKDKQPVTAGVRFRLAQDGDLYRLKILDLQLSDSGQYVSRARNAHGEAFACLGLQVDAEA
chain 3: EVQLVQSGAEVKKPGSSVKVSCKASGYTFSNYLIEWVRQAPGQGLEWIGVIDPGVGDTNYNENFKGRATLTADKSTSTAYIELSSLRSEDTAVYYCAREDNTGTAFDYWGQGTTVTVSSASTKGPSVFPLAPSSKSTSGGTAALGCLVKDYFPEPVTVSWNSGALTSGVHTFPAVLQSSGLYSLSSVVTVPSSSLGTQTYICNVNHKPSNTKVDKKVEPKSCDKTHTCPPCPAPEAAGGPSVFLFPPKPKDTLMISRTPEVTCVVVDVSHEDPEVKFNWYVDGVEVHNAKTKPREEQYNSTYRVVSVLTVLHQDWLNGKEYKCKVSNKALPAPIEKTISKAKGQPREPQVCTLPPSREEMTKNQVSLSCAVKGFYPSDIAVEWESNGQPENNYKTTPPVLDSDGSFFLVSKLTVDKSRWQQGNVFSCSVMHEALHNHYTQKSLSLSPGK
chain 4: SIVMTQTPLSLSVTPGQPASISCKASQSVSSDVTWYLQKPGQSPQLLIYYVSEHYTGVPDRFSGSGYGTDFTLKISRVEAEDVGVYYCQQHHRFPLTFGQGTKLEIKRTVAAPSVFIFPPSDEQLKSGTASVVCLLNNFYPREAKVQWKVDNALQSGNSQESVTEQDSKDSTYSLSSTLTLSKADYEKHKVYACEVTHQGLSSPVTKSFNRGEC
- EC50 (hTSLP): 2.64 nM
- EC50 (hIL5): 16 nM
